Data on 34 molecules can be found in patent US7026443.

Read-outs that look alike come from different tables or passages of the source.

Assay [1] addresses HLA-A*0201 (purified HLA class I molecule) (human).
Assay [2] addresses HLA-B*5301 (human). The experiment in a line: competition with 125I-labeled standard probe peptide for purified HLA, gel filtration. To be noted: for relative binding ratio: scale: ratio. Background: In gel filtration, larger molecules generally elute earlier.
Assay [3] addresses HLA-B*5401 (human). The assay is described as above. To be noted: for relative binding ratio: scale: ratio.
The target of assay [4] is HLA-B*5101 (human). The assay is described as above. To be noted: for relative binding ratio: scale: ratio.
Assay [5] concerns the target HLA-B*3501 (human). The description is as above. The settings on record: for relative binding ratio: scale: ratio.
Assay [6] has as its target HLA-B*0702 (human). The description is as above. To be noted: for relative binding ratio: scale: ratio.
The target of assay [7] is HLA-A*0301 (human). The experiment in a line: inhibition of 125I-labeled standard peptide binding to purified HLA, gel filtration.
Assay [8] deals with HLA-A*1101 (human). Described as above.
For assay [9], the target named is HLA-A*1101 (purified HLA class I molecule) (human). The experiment in a line: competition with 125I-labelled standard peptide for purified HLA-A*1101, gel filtration.
Assay [10] addresses HLA-A*0301 (human). The experiment in a line: competition with 125I-labeled standard peptide for purified HLA-A*0301, gel filtration.
Assay [11] has as its target HLA-A*1101 (purified HLA class I molecule) (human).
Assay [12] addresses HLA-A*0101 (human). The experiment in a line: competition with 125I-labelled standard peptide 944.02 ([..]) for purified HLA-A*0101, gel filtration. The settings on record: remark: other sources report otherwise.
Assay [13] addresses HLA-A*2402 (human). The experiment in a line: competition with 125I-labelled standard probe peptide for purified HLA-A*2402, gel filtration.
Assay [14] has as its target HLA-A*2402 (human). The experiment in a line: competition with 125I-labelled standard peptide for purified HLA-A*2402, gel filtration.
Assay [15] has as its target HLA-A*0301 (human). The experiment in a line: competitive inhibition of 125I-labelled standard peptide binding to purified HLA-A*0301, gel filtration. The settings on record: remark: other sources report otherwise.
The target in assay [16] is HLA-A*6801 (human). The experiment in a line: competition with 125I-labelled standard peptide for purified HLA, gel filtration.
Assay [17] has as its target HLA-A*0301 (human). Described as above.
For assay [18], the target named is HLA-A*1101 (human). Described as above.
Assay [19] has as its target HLA-A*3301 (human). The assay is described as above.
In assay [20] the target is HLA-B*0702 (human). The experiment in a line: competition with 125I-labeled standard peptide for purified HLA, gel filtration.
Where [21] appears, read: remark: other sources report otherwise.

In the case of YLVSPLSDI (modifications not checked) [HPV16 E1 peptide … (position 90, 9 amino acids)], the relative binding ratio (IC50 of standard peptide / IC50 of test peptide) (ratio to standard peptide) in assay [1] is 0.02.
As to TPTLHEYML (modifications not checked) [HPV16 E7 5 …], the relative binding ratio in assay [2] (setting [21]) was 0.0001; in [3] (setting [21]) it was 0.0002; in assay [4] (setting [21]) it was 0.0001; in [5] (setting [21]) it was 0.0001; in [6] (setting [21]) it was 0.11.
On to LTNILNVLK (modifications not checked) [HPV16 E1 peptide … (position 191, 9 amino acids)], for which the binding affinity ratio (IC50 of standard peptide / IC50 of test peptide) is 0.0086 in assay [7] and 0.42 in [8].
Turning to RFEDPTRRPY (modifications not checked) [HPV18 E6 3-12 peptide …], in assay [9], the relative binding ratio (IC50 of standard peptide / IC50 of test peptide) came out at 0.0002.
As to CMCCKCEARIK (modifications not checked) [HPV18 E7 63-73 peptide …], the relative binding ratio (IC50 of standard peptide / IC50 of test peptide) was 0.0014 in assay [10] and 0.0002 in assay [9].
As for SIPHAACHK (modifications not checked) [HPV18 E6 59-67 peptide …], in assay [9], the relative binding ratio (IC50 of standard peptide / IC50 of test peptide) stood at 0.12.
On to AICIEKQSR (modifications not checked) [HPV16 E1 peptide … (position 112, 9 amino acids)], for which the binding affinity ratio (IC50 of standard peptide / IC50 of test peptide) in assay [7] stood at 0.001; in assay [8], 0.0057. In [10], the relative binding ratio (IC50 of standard peptide / IC50 of test peptide) (ratio to standard peptide) was 0.001.
Regarding RFHNIAGHY (modifications not checked) [HPV18 E6 126-134 peptide …], in assay [11], the relative binding ratio (IC50 of standard peptide / IC50 of test peptide) worked out at 0.0002.
Consider TGLYNLLIR (modifications not checked) [HPV18 E6 96-104 peptide …], for which, in assay [11], the relative binding ratio (IC50 of standard peptide / IC50 of test peptide) is 0.0002.
LSLHEDEDK (modifications not checked) [HPV16 E1 peptide … (position 620, 9 amino acids)]: the results for the binding affinity ratio (IC50 of standard peptide / IC50 of test peptide) in assay [7] and in assay [8] were 0.0005 and 0.0002, respectively.
PLNPAEKLR (modifications not checked) [HPV18 E6 111-119 peptide …]: the relative binding ratio (IC50 of standard peptide / IC50 of test peptide) in assay [9] was 0.0005.
In the case of RFHNIAGHYR (modifications not checked) [HPV18 E6 126-135 peptide …], the relative binding ratio (IC50 of standard peptide / IC50 of test peptide) in assay [11] worked out at 0.0057.
Take ALYWYRTGI (modifications not checked) [HPV45 E1 peptide … (position 311, 9 amino acids)]: in assay [1], the relative binding ratio (IC50 of standard peptide / IC50 of test peptide) is 0.0032.
On to IVYRDGNPY (modifications not checked) [HPV16 E6 59 …], for which, in assay [12], the binding affinity ratio (IC50 of standard peptide / IC50 of test peptide) was found to be 0.0018. In addition, the relative binding ratio (IC50 of standard peptide / IC50 of test peptide) in assay [13] (setting [21]) came out at 0.0001.
Turning to VVYRDSIPH (modifications not checked) [HPV18 E6 54-62 peptide …], the relative binding ratio (IC50 of standard peptide / IC50 of test peptide) in [11] was determined as 0.38.
Take KAAMLAKFK (modifications not checked) [HPV16 E1 peptide … (position 204, 9 amino acids)]: the binding affinity ratio (IC50 of standard peptide / IC50 of test peptide) in assay [7] was 0.11; in assay [8] it was 0.18.
For the molecule PYAVCDKCLKF (modifications not checked) [HPV16 E6 66 …], in assay [14], the relative binding ratio (IC50 of standard peptide / IC50 of test peptide) (ratio to standard peptide) was found to be 0.11. For the same molecule, the relative binding ratio (IC50 of standard peptide / IC50 of test peptide) in assay [13] is 0.11.
Turning to VMFLRYQGV (modifications not checked) [HPV16 E1 peptide … (position 443, 9 amino acids)], the relative binding ratio (IC50 of standard peptide / IC50 of test peptide) (ratio to standard peptide) in [1] was 0.014.
For SVYGDTLEK (modifications not checked) [HPV18 E6 84-92 peptide …], the relative binding ratio (IC50 of standard peptide / IC50 of test peptide) in [11] came to 0.23.
For the molecule ALDGNPISI (modifications not checked) [HPV45 E1 peptide … (position 532, 9 amino acids)], in assay [1], the relative binding ratio (IC50 of standard peptide / IC50 of test peptide) stood at 0.021.
For the molecule EPDRAHYNI (modifications not checked), the relative binding ratio in [2] came out at 0.0017; in assay [3], 0.0002; in assay [4] it was 0.0031; in assay [5], 0.0001; in [6], 0.0001.
In the case of ETTDLYCY (modifications not checked) [HPV16 E7 18 ETTDLYCY], the binding affinity ratio (IC50 of standard peptide / IC50 of test peptide) in assay [12] is 0.078. The relative binding ratio (IC50 of standard peptide / IC50 of test peptide) (ratio to standard peptide) in assay [15] was 0.0002. Moreover, the relative binding ratio (IC50 of standard peptide / IC50 of test peptide) in assay [13] (setting [21]) is 0.0001.
As for SPLGERLEV (modifications not checked) [HPV18 E1 97 peptide …], the binding affinity ratio (IC50 of standard peptide / IC50 of test peptide) in assay [2] worked out at 0.0002; in [3], 0.0011; in [4] it was 0.0002; in assay [5] it was 0.0003; in assay [6], 0.13.
On to IVCPICSQK (modifications not checked) [HPV16 E7 peptide …], for which the binding affinity ratio (IC50 of standard peptide / IC50 of test peptide) in assay [16] (setting [21]) worked out at 0.01; in assay [17] (setting [21]), 0.0077; in assay [18] (setting [21]), 0.0065; in assay [19] (setting [21]), 0.0016.
On to LPQLCTEL (modifications not checked) [HPV16 E6 19 LPQLCTEL], for which, in assay [20], the binding affinity ratio (IC50 of standard peptide / IC50 of test peptide) came out at 0.0055.
As to GMVVLLLVR (modifications not checked) [HPV16 E1 peptide … (position 272, 9 amino acids)], the binding affinity ratio (IC50 of standard peptide / IC50 of test peptide) in assay [7] was determined as 0.0036; in assay [8], 0.0082.
With PPKLRSTAA (modifications not checked) [HPV16 E1 309 …], the binding affinity ratio (IC50 of standard peptide / IC50 of test peptide) in assay [20] was 0.0014.
Take SPRLQEISL (modifications not checked) [HPV18 E1 110 peptide …]: the binding affinity ratio (IC50 of standard peptide / IC50 of test peptide) in [2] amounted to 0.0002; in [4], 0.0005; in assay [5], 0.0008; in [6], 0.62.
Regarding QYNKPLCDLL (modifications not checked), in assay [14], the relative binding ratio (IC50 of standard peptide / IC50 of test peptide) (ratio to standard peptide) was determined as 0.0015. In assay [13], the relative binding ratio (IC50 of standard peptide / IC50 of test peptide) came out at 0.0015.
For QYNKPLCDL (modifications not checked), in assay [14], the relative binding ratio (IC50 of standard peptide / IC50 of test peptide) (ratio to standard peptide) was 0.0001. The relative binding ratio (IC50 of standard peptide / IC50 of test peptide) in [13] came to 0.0001.
In the case of TTLEQQYNK (modifications not checked) [HPV16 E6 peptide …], the binding affinity ratio (IC50 of standard peptide / IC50 of test peptide) in [16] amounted to 0.3; in assay [17] it was 0.01; in assay [18] it was 0.29; in assay [19] it was 0.066.
On to RARQERLQR (modifications not checked) [HPV18 E6 144-152 peptide …], for which the relative binding ratio (IC50 of standard peptide / IC50 of test peptide) in assay [9] was determined as 0.0002.
Take EPDRAHYNIV (modifications not checked): the relative binding ratio in assay [2] (setting [21]), in assay [3] (setting [21]), in [4] (setting [21]), in [5] (setting [21]) and in assay [6] (setting [21]) was 0.0001 in each case.
With NPYAVCDKCL (modifications not checked) [HPV16 E6 65 …], the relative binding ratio in assay [2], in assay [3], in assay [4], in assay [5] and in assay [6] was 0.0001 each time.
